Assay results reported in patent US20250123280A1, “LABEL-FREE DETECTION OF PROTEASE ACTIVITY” (OREGON HEALTH & SCIENCE UNIVERSITY, priority 2021, published 2025).
Ends that are not written are not given here. Peptide text beside a SMILES is read from it. * marks the point of attachment. Fmoc = O=C(OCC1c2ccccc2-c2ccccc21)*

Key:
[1] = ThT fluorescence of self-assembled peptide 2 in assay buffer; conditions: peptide 2 0.58 mg/mL in assay buffer, ThT 90 μM
Method: β-sheet rich nanoplatelet formation by self-assembly of peptide 2. […] Nano Lett. 2017, 17 (9), 5546-5554). […] ThT (90 μM) addition to this solution yielded a bright fluorescence with an emission maximum of about 490 nm (see FIG. 2).

[2] = Solubility in aqueous solutions; assay type: physicochemical
[3] = target: T1, cathepsin B (Homo sapiens, UniProt P07858); experiment: Cathepsin B assay with peptide 3 and ThT; assay type: biochemical; conditions: after treatment with cathepsin B (1000 ng/mL vs 0 ng/mL)
T1 construct: purchased Bio-Techne
Method: Peptide 3 was prepared as a 2.0 mg/mL solution in 1× phosphate buffered saline, pH 7.4 and 5% DMSO. In a typical assay experiment, 50 μL of the peptide 3 solution was mixed 50 μL of 50 mM MES buffer, pH 5 with cathepsin B at a concentration between about 0 and about 1000 ng/mL in a 96-well microplate and the plate was incubated at 37° C. for 2 hours. Then, 10 μL of 0.1 μm-filtered 1 mM aqueous ThT solution was added to each well and mixed for a final concentration of 90 μM ThT. After 15-30 min incubation at room temperature, the ThT fluorescence was measured at room temperature using a Tecan Spark 20M microplate reader.

[4] = target: T2, Peptide 1 (Fmoc-Phe-Lys-Phe-Glu-Ala-Ala-Asn-Gly-Glu-Glu-Gly-Ser-Gly-Glu-Glu)
T2 chain: FKFEAANGEEGSGEE

[5] = target: the molecule itself; experiment: self-assembly of peptide 2 in assay buffer; centrifugation, TEM, AFM
Method: Transmission electron microscopy (TEM) and atomic force microscopy (AFM) imaging. […] After incubating at 37° C. for 2.0 hours, the formed aggregates were collected by centrifugation and resuspended in ultrapure water. […] TEM images were taken using a Tecnai microscope (FEI). To prepare TEM samples, 5 μL of solutions were placed on carbon film 200 copper mesh TEM grids. Samples were incubated on TEM grids for about 5 minutes and bloated and air dried. Uranyl acetate was prepared in distilled water at 2% w/v and filtered with a 0.1 μm syringe filter before each use. A 20 μl droplet of this solution was placed on Parafilm and the TEM grid was floated on it for 7 minutes. Excess uranyl acetate was blotted using Whatman paper, and the sample is left to dry at room temperature.
The morphology of these structures was investigated using transmission electron microscopy (TEM) and atomic force microscopy (AFM). […] AFM experiments were performed to further analyze the morphology of self-assembled nano-platelets.

[6] = target: the molecule itself; experiment: circular dichroism of peptide 1 alone (self-assembly)

## C[C@H](NC(=O)[C@H](C)NC(=O)[C@H](CCC(=O)O)NC(=O)[C@H](Cc1ccccc1)NC(=O)[C@H](CCCCN)NC(=O)[C@H](Cc1ccccc1)NC(=O)OCC1c2ccccc2-c2ccccc21)C(=O)N[C@@H](CC(N)=O)C(=O)O [peptide 2, Fmoc-FKFEAAN] (Fmoc-FKFEAAN-OH)
[1]
  enhancement in the ThT fluorescence intensity: 45 fold
[2]
  solubility in aqueous solutions: not soluble in aqueous solutions

## Fmoc-FKFELAGGAGEEGSGEEE [peptide 3, cathepsin B substrate motif LAGGAG in place of the legumain substrate]
[3]
  increase in ThT fluorescence: ≤ 72 fold

B1: Recombinant mouse legumain (protein)
chain: VPVGVDDPEDGGKHWVVIVAGSNGWYNYRHQADACHAYQIIHRNGIPDEQIIVMMYDDIANSEENPTPGVVINRPNGTDVYKGVLKDYTGEDVTPENFLAVLRGDAEAVKGKGSGKVLKSGPRDHVFIYFTDHGATGILVFPNDDLHVKDLNKTIRYMYEHKMYQKMVFYIEACESGSMMNHLPDDINVYATTAANPKESSYACYYDEERGTYLGDWYSVNWMEDSDVEDLTKETLHKQYHLVKSHTNTSHVMQYGNKSISTMKVMQFQGMKHRASSPISLPPVTHLDLTPSPDVPLTILKRKLLRTNDVKESQNLIGQIQQFLDARHVIEKSVHKIVSLLAGFGETAERHLSERTMLTAHDCYQEAVTHFRTHCFNWHSVTYEHALRYLYVLANLCEAPYPIDRIEMAMDKVCLSHY
[4]
  LC-MS, fraction of peptide 1 cleaved: almost 30% of the peptide was cleaved by legumain
  ON/OFF ratio of the assay in albumin depleted 20% plasma: improve the ON/OFF ratio of the assay to about 10
  ThT emission enhancement at 1 mg/mL peptide 1 (500 ng/mL legumain): a 28-fold enhancement in its emission was obtained at 1 mg/mL peptide concentration
  ThT emission intensity enhancement at 1000 ng/mL legumain (1.0 mg/mL peptide 1, 2 h): about 32 fold at 1000 ng/mL legumain concentration
  ThT emission intensity increase at peptide 1 below 0.25 mg/mL (500 ng/mL legumain): minimal (1.3-1.4 fold)
  ThT fluorescence enhancement at 10.0 ng/mL legumain: a slight (about 1.3 fold) fluorescence enhancement was obtained at the legumain concentration of 10.0 ng/mL
  ThT fluorescence enhancement at 25.0 ng/mL legumain: an easily detectable (about 3-fold) fluorescence enhancement was detected at 25.0 ng/mL
  ThT fluorescence enhancement in 10% plasma (1000 ng/mL legumain, 25 µM ThT): a fluorescence enhancement of about 20 fold was obtained in 10% plasma at the legumain concentration of 1000 ng/mL
  ThT fluorescence enhancement in 20% human plasma (1000 ng/mL legumain, 90 µM ThT): a detectable fluorescence enhancement (about 2.5 fold)
  ThT fluorescence intensity at 24 hours relative to 2 hours (1000 ng/mL legumain): at 24 hours, the fluorescence intensity was about 2.5 higher compared with the intensity at two hours
  limit of detection (LOD) of legumain in the peptide 1 / ThT assay: about 12 ng/mL (0.21 nM)
  limit of quantification (LOQ) of legumain in the peptide 1 / ThT assay: about 25 ng/mL (0.45 nM)
  minimum detectable legumain concentration in 10% plasma: a minimum detectable concentration between 50 ng/mL to 200 ng/mL

B2: Peptide 2 (Fmoc-FKFEAAN) (peptide)
peptide: Fmoc-FKFEAAN
notes: Synthetic peptide bought from GenScript (1048.2 g/mol); It is also the product of hydrolysis of peptide 1 by legumain; It self-assembles into many-copy nanoplatelets; also called protein 2; self-assembly precursor
[5]
  binding result: binds

B3: Peptide 1 (Fmoc-Phe-Lys-Phe-Glu-Ala-Ala-Asn-Gly-Glu-Glu-Gly-Ser-Gly-Glu-Glu) (peptide)
peptide: Fmoc-FKFEAANGEEGSGEE
notes: also called protein 1; the probe
[6]
  binding result: no binding (tested: 0.333 mg/mL)
